Source: IntAct's records for PubMed 22664871

B1: Tumor necrosis factor ligand superfamily member 11 (Homo sapiens), O14788 (parent)
chain: MRRASRDYTKYLRGSEEMGGGPGAPHEGPLHAPPPPAPHQPPAASRSMFVALLGLGLGQVVCSVALFFYFRAQMDPNRISEDGTHCIYRILRLHENADFQDTTLESQDTKLIPDSCRRIKQAFQGAVQKELQHIVGSQHIRAEKAMVDGSWLDLAKRSKLEAQPFAHLTINATDIPSGSHKVSLSSWYHDRGWAKISNMTFSNGKLIVNQDGFYYLYANICFRHHETSGDLATEYLQLMVYVTKTSIKIPSSHTLMKGGSTKYWSGNSEFHFYSINVGGFFKLRSGEEISIEVSNPSLLDPDQDATYFGAFKVRDID
partner: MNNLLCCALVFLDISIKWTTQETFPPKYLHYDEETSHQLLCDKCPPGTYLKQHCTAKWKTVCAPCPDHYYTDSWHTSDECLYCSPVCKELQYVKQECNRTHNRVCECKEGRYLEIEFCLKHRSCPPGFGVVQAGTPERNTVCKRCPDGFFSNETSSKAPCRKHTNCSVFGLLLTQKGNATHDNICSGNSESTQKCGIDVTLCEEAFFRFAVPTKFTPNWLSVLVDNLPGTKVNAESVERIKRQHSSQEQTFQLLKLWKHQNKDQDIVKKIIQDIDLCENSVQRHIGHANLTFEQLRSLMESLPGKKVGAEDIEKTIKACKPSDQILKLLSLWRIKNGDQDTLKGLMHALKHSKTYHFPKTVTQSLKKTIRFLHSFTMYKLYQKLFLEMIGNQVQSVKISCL
B2: Tumor necrosis factor ligand superfamily member 11 (Homo sapiens), O14788 (parent)
chain: B1 chain
partner: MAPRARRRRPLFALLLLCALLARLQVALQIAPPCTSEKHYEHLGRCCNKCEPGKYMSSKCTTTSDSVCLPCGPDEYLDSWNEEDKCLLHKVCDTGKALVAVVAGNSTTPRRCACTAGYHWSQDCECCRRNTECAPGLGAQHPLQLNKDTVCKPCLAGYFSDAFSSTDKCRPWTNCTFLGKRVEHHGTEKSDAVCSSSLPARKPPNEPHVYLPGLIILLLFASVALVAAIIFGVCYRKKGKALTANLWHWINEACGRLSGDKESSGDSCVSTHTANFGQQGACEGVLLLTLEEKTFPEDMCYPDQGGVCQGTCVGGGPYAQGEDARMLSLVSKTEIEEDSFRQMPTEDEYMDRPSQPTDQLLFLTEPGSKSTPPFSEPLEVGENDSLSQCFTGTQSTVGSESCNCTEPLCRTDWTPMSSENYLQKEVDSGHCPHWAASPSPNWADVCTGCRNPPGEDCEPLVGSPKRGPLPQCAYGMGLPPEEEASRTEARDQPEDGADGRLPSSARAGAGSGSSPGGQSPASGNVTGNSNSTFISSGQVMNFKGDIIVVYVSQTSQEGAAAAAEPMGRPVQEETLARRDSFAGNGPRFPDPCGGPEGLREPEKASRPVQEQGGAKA
B3: Tumor necrosis factor receptor superfamily member 11B (Homo sapiens), O00300 (parent)
chain: B1 partner
partner: B1 chain

Variants of: B1
Conditions: with tr11b_human TNFRSF11B

Row | effect of a mutation on the interaction | Variant
1 | disrupting interaction strength | MRRASRDYTKYLRGSEEMGGGPGAPHEGPLHAPPPPAPHQPPAASRSMFVALLGLGLGQVVCSVALFFYFRAQMDPNRISEDGTHCIYRILRLHENADFQDTTLESQDTKLIPDSCRRIKQAFQGAVQKELQHIVGSQHIRAEKAMVDGSWLDLAKRSKLEAQPFAHLTINATDIPSGSHKVSLSSWYHDRGWAKISNMTFSNGKLIVNQDGFYYLYANICFAHHETSGDLATEYLQLMVYVTKTSIKIPSSHTLMKGGSTKYWSGNSEFHFYSINVGGFFKLRSGEEISIEVSNPSLLDPDQDATYFGAFKVRDID [R223A]
2 | decreasing interaction strength | MRRASRDYTKYLRGSEEMGGGPGAPHEGPLHAPPPPAPHQPPAASRSMFVALLGLGLGQVVCSVALFFYFRAQMDPNRISEDGTHCIYRILRLHENADFQDTTLESQDTKLIPDSCRRIKQAFQGAVQKELQHIVGSQHIRAEKAMVDGSWLDLAKRSKLEAQPFAHLTINATDIPSGSHKVSLSSWYHDRGWAKISNMTFSNGKLIVNQDGFYYLYANICFRHHETSGDLATEYLQLMVAVTKTSIKIPSSHTLMKGGSTKYWSGNSEFHFYSINVGGFFKLRSGEEISIEVSNPSLLDPDQDATYFGAFKVRDID [Y241A]
3 | disrupting interaction strength | MRRASRDYTKYLRGSEEMGGGPGAPHEGPLHAPPPPAPHQPPAASRSMFVALLGLGLGQVVCSVALFFYFRAQMDPNRISEDGTHCIYRILRLHENADFQDTTLESQDTKLIPDSCRRIKQAFQGAVQKELQHIVGSQHIRAEKAMVDGSWLDLAKRSKLEAQPFAHLTINATDIPSGSHKVSLSSWYHDRGWAKISNMTFSNGKLIVNQDGFYYLYANICFRHHETSGDLATEYLQLMVYVTKTSIKIPSSHTLMAGGSTKYWSGNSEFHFYSINVGGFFKLRSGEEISIEVSNPSLLDPDQDATYFGAFKVRDID [K257A]

Variants of: B2
Conditions: with tnr11_human TNFRSF11A

Row | effect of a mutation on the interaction | Variant
4 | disrupting interaction strength | MRRASRDYTKYLRGSEEMGGGPGAPHEGPLHAPPPPAPHQPPAASRSMFVALLGLGLGQVVCSVALFFYFRAQMDPNRISEDGTHCIYRILRLHENADFQDTTLESQDTKLIPDSCRRIKQAFQGAVQKELQHIVGSQHIRAEKAMVDGSWLDLAKRSKLEAQPFAHLTINATDIPSGSHKVSLSSWYHDRGWAKISNMTFSNGKLIVNQDGFYYLYANICFRHHETSGDLATEYLQLMVYVTKTSIKIPSSHTLMAGGSTKYWSGNSEFHFYSINVGGFFKLRSGEEISIEVSNPSLLDPDQDATYFGAFKVRDID [K257A]
5 | disrupting interaction strength | MRRASRDYTKYLRGSEEMGGGPGAPHEGPLHAPPPPAPHQPPAASRSMFVALLGLGLGQVVCSVALFFYFRAQMDPNRISEDGTHCIYRILRLHENADFQDTTLESQDTKLIPDSCRRIKQAFQGAVQKELQHIVGSQHIRAEKAMVDGSWLDLAKRSKLEAQPFAHLTINATDIPSGSHKVSLSSWYHDRGWAKISNMTFSNGKLIVNQDGFYYLYANICFAHHETSGDLATEYLQLMVYVTKTSIKIPSSHTLMKGGSTKYWSGNSEFHFYSINVGGFFKLRSGEEISIEVSNPSLLDPDQDATYFGAFKVRDID [R223A]
6 | decreasing interaction strength | MRRASRDYTKYLRGSEEMGGGPGAPHEGPLHAPPPPAPHQPPAASRSMFVALLGLGLGQVVCSVALFFYFRAQMDPNRISEDGTHCIYRILRLHENADFQDTTLESQDTKLIPDSCRRIKQAFQGAVQKELQHIVGSQHIRAEKAMVDGSWLDLAKRSKLEAQPFAHLTINATDIPSGSHKVSLSSWYHDRGWAKISNMTFSNGKLIVNQDGFYYLYANICFRHHETSGDLATEYLQLMVAVTKTSIKIPSSHTLMKGGSTKYWSGNSEFHFYSINVGGFFKLRSGEEISIEVSNPSLLDPDQDATYFGAFKVRDID [Y241A]

Variants of: B3
Conditions: with tnf11_human TNFSF11, O14788

Row | effect of a mutation on the interaction | Variant
7 | with no effect | MNNLLCCALVFLDISIKWTTQETFPPKYLHYDEETSHQLLCDKCPPGTYLKQHCTAKWKTVCAPCPDHYYTDSWHTSAACLYCSPVCKELQYVKQECNRTHNRVCECKEGRYLEIEFCLKHRSCPPGFGVVQAGTPERNTVCKRCPDGFFSNETSSKAPCRKHTNCSVFGLLLTQKGNATHDNICSGNSESTQKCGIDVTLCEEAFFRFAVPTKFTPNWLSVLVDNLPGTKVNAESVERIKRQHSSQEQTFQLLKLWKHQNKDQDIVKKIIQDIDLCENSVQRHIGHANLTFEQLRSLMESLPGKKVGAEDIEKTIKACKPSDQILKLLSLWRIKNGDQDTLKGLMHALKHSKTYHFPKTVTQSLKKTIRFLHSFTMYKLYQKLFLEMIGNQVQSVKISCL [D78A;E79A]
8 | decreasing interaction strength | MNNLLCCALVFLDISIKWTTQETFPPKYLHYDEETSHQLLCDKCPPGTYLKQHCTAKWKTVCAPCPDHYYTDSWHTSDECLYCSPVCKELQYVKQECNRTHNRVCECKEGRYLEIAFCLKHRSCPPGFGVVQAGTPERNTVCKRCPDGFFSNETSSKAPCRKHTNCSVFGLLLTQKGNATHDNICSGNSESTQKCGIDVTLCEEAFFRFAVPTKFTPNWLSVLVDNLPGTKVNAESVERIKRQHSSQEQTFQLLKLWKHQNKDQDIVKKIIQDIDLCENSVQRHIGHANLTFEQLRSLMESLPGKKVGAEDIEKTIKACKPSDQILKLLSLWRIKNGDQDTLKGLMHALKHSKTYHFPKTVTQSLKKTIRFLHSFTMYKLYQKLFLEMIGNQVQSVKISCL [E116A]
